In one assay the target is T1, D119A.
T1 construct: also called human TGF-βRII with D119A (alanine scan clone)
T1 receptor: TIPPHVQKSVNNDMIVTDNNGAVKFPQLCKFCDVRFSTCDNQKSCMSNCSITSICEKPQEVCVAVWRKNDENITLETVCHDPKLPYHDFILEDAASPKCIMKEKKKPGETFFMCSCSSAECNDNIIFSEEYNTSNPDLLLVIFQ
Nature of the assay: shotgun mutagenesis alanine scan, mean fluorescence of the mutant clone in % of wildtype.

A further assay deals with T2, E120A.
T2 construct: also called human TGF-βRII with E120A (alanine scan clone)
T2 receptor: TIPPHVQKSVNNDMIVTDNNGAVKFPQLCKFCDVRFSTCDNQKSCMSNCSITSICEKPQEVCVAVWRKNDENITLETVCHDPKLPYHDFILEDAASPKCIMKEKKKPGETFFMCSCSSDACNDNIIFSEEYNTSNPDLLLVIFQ
The description is as above.

The next assay concerns the target T3, T52A.
T3 construct: also called human TGF-βRII with T52A (alanine scan clone)
T3 receptor: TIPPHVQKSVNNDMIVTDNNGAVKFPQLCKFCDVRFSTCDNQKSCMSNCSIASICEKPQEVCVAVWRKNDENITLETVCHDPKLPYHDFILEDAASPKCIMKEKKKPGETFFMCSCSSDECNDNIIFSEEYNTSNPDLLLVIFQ
The assay is described as above.

The target in a further assay is T4, F25A.
T4 construct: also called human TGF-βRII with F25A (alanine scan clone)
T4 receptor: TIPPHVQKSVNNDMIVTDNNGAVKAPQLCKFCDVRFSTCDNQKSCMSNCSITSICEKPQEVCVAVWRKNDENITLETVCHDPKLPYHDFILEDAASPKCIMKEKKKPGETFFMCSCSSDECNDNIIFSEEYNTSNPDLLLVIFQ
The assay is described as above.

The next assay addresses T5, L28A.
T5 construct: L28 is named only on the sheet; also called human TGF-βRII with L28A (alanine scan clone)
T5 receptor: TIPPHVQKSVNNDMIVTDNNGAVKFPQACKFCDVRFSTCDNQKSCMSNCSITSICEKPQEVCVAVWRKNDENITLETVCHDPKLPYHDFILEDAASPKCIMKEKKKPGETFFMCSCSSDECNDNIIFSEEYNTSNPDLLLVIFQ
The description is as above.

Another assay has as its target T6, I54A.
T6 construct: also called human TGF-βRII with I54A (alanine scan clone)
T6 receptor: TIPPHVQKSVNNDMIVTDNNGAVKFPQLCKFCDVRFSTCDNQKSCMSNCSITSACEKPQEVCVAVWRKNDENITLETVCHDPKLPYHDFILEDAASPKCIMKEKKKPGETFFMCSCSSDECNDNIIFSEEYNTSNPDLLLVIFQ
Described as above.

The target in assay [1] is T7, Human TGF-βRII-Fc (R&D; cat. no. 341-BR) (human, UniProt P37173 23-159).
T7 construct: Bought construct; not shown: Fc part of the bought fusion
Nature of the assay: ELISA; blocking of TGF-βRII-Fc binding to coated TGF-β1. (In general: ELISA stands for enzyme-linked immunosorbent assay.)

Assay [2] has as its target T7, Human TGF-βRII-Fc (R&D; cat. no. 341-BR). The experiment in a line: ligand blocking ELISA: TGF-βRII-Fc on coated TGF-β1, antibody titrated (OD450).

B1: antibody comprising heavy chain variable regions having SEQ ID NO: 93 (antibody, V domains shown)
VH: EVQLVESGGDLVKPGGSLRLSCAASGFTFSNAWMSWVRQAPGKGLEWVGRVKTTVSGGTTDYAAAVKGRFTISRDDSKNTLYLQMNSLKTEDTAIYYCTIDLRDYWGQGTLVTVSS
VL: not shown
notes: From the second round of immunization; tested as bivalent IgG
The IC50 is the concentration needed to halve the response being measured. Take B1: the “Binding Reactivity (% WT)” value in the assay with D119A came to 2.8 % WT; with E120A, 91.5 % WT; in the assay with T52A, 23.4 % WT; with F25A it was 2.28 % WT; with L28A, 22.8 % WT; with I54A, 24 % WT. This molecule also displayed an IC50 in assay [1] of 0.155 µg/mL.

B2: antibody comprising heavy chain variable regions having SEQ ID NO: 94 (antibody, V domains shown)
VH: EVQLVESGGGLVQPGGSLRLSCAASGFTFSRYAMSWVRQAPGKGLEWVSSINTSGGNTFYADSVKGRFTISRDNSKNTLYLQMNSLRAEDTAIYYCAKGIAATGKNYFDPWGQGTLVTVSS
VL: not shown
notes: IgG expressed in 293T freestyle cells
Turning to B2, the “IC50 (read off the curve)” value in assay [2] was roughly 0.03 µg/mL.
